# According to article PMC4587843, “Vascular Smooth Muscle Cells Stimulate Platelets and Facilitate Thrombus Formation through Platelet CLEC-2: Implications in Atherothrombosis” (PLoS ONE, 2015):
# Columns and labels:
# [1] = molecular target: native CLEC-2 on the surface of murine platelets (mouse (endogenous in platelets)) (UniProt Q9JL99)
# [2] = molecular target: T1, recombinant extracellular domain of human CLEC-2 expressed as a dimeric rabbit immunoglobulin Fc domain … (human, UniProt Q9P126 55-229); assay: SPR; hCLEC-2-rFc2 and control rFc2 amine-coupled to a CM5 chip, Biacore X; S100A13 in modified Tyrode's buffer with 1 mM CaCl2 perfused at 20 uL/min, 25 C; control surface subtracted; Kd by BIAevaluation; details: both partners purified
# T1 construct: CLEC-2, human, extracellular domain; also called hCLEC-2-rFc2; human CLEC-2-rabbit Fc2; source: recombinant, generated as described previously [2]
# T1 sequence (Q9P126 55-229): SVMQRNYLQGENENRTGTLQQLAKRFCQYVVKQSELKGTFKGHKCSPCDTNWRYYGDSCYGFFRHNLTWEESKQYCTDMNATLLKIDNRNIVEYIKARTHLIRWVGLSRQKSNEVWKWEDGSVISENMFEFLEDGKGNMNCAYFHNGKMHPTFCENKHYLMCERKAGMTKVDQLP
# native CLEC-2 on the surface of murine platelets (mouse (endogenous in platelets)), sequence (Q9JL99 whole entry, the tested form may be a part): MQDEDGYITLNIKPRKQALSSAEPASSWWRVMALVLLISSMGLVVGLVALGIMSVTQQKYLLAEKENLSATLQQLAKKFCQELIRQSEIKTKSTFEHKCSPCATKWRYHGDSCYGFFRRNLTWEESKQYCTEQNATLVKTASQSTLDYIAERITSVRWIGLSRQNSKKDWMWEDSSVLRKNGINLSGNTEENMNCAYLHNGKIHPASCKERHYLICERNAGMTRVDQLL
Kd [2],Molecule,"release of 5-HT or PDGF from washed murine WT platelets, percent of the total stored, maximum concentration of rhodocytin [1]"
,rhodocytin (complex),60%
137 nM,"GST-tagged S100A13 recombinant protein (natural protein, UniProt Q99584 1-98, looked up, S100A13; also called S100A13-GST; recombinant S100A13-GST; source: bought: CycLex Co., Ltd. (Japan)) MAAEPLTELEESIETVVTTFFTFARQEGRKDSLSVNEFKELVTQQLPHLLKDVGSLDEKMKSLDVNQDSELKFNEYWRLIGELAKEIRKKKDLKIRKK",
